Data set [1] addresses MBP-C125 (maltose-binding protein fused to the last 125 amino acids of APP), P05067.
Data set [2] addresses MBP-C125sw (maltose-binding protein fused to the last 125 amino acids of APP, Swedish double mutation) [MBP: P0AEX9].
The target in data set [3] is APP 751 wild type (expressed from pohCK751), P05067.
Data set [4] deals with APP 751 with the Swedish mutation (APPsw), P05067.
The target in data set [5] is T1, P26-P4′sw substrate ((biotin)CGGADRGLTTRPGSGLTNIKTEEISEVNLDAEF) (not fully specified).
T1 chain: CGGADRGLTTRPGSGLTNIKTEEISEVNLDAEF

4 proteins from patent US7115410 can be followed below.

MBP-C125 (maltose-binding protein fused to the last 125 amino acids of APP), P05067, sequence (P05067 whole entry, looked up, the tested form may be a part): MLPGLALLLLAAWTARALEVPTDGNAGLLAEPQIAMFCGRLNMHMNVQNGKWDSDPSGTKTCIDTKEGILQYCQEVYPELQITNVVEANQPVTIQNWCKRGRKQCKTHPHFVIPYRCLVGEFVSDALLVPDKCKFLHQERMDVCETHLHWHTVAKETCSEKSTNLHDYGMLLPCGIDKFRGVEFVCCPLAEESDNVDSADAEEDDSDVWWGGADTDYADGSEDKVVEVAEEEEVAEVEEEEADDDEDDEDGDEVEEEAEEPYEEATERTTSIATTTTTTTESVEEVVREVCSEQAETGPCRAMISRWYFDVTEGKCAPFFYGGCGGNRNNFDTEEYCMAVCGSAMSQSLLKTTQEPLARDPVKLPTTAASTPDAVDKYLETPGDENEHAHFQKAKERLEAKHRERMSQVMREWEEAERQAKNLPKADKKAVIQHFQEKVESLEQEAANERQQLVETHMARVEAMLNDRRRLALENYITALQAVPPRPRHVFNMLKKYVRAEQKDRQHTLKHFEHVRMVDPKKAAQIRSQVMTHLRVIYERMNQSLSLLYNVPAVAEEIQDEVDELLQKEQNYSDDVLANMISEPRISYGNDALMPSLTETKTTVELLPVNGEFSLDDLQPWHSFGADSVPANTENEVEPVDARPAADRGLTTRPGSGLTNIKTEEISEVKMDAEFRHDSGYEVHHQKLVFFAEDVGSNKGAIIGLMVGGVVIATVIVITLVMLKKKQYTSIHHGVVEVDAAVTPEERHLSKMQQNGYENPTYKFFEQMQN
APP 751 with the Swedish mutation (APPsw), P05067, sequence (P05067 whole entry, looked up, change not shown): as the sequence (P05067 whole entry, looked up, the tested form may be a part) above
APP 751 wild type (expressed from pohCK751), P05067, sequence (P05067 whole entry, looked up): as the sequence (P05067 whole entry, looked up, the tested form may be a part) above

B1: FLp501 (full length recombinant β-secretase having a C-terminal flag sequence) (protein)
chain: TQHGIRLPLRSGLGGAPLGLRLPRETDEEPEEPGRRGSFVEMVDNLRGKSGQGYYVEMTVGSPPQTLNILVDTGSSNFAVGAAPHPFLHRYYQRQLSSTYRDLRKGVYVPYTQGKWEGELGTDLVSIPHGPNVTVRANIAAITESDKFFINGSNWEGILGLAYAEIARPDDSLEPFFDSLVKQTHVPNLFSLQLCGAGFPLNQSEVLASVGGSMIIGGIDHSLYTGSLWYTPIRREWYYEVIIVRVEINGQDLKMDCKEYNYDKSIVDSGTTNLRLPKKVFEAAVKSIKAASSTEKFPDGFWLGEQLVCWQAGTTPWNIFPVISLYLMGEVTNQSFRITILPQQYLRPVEDVATSQDDCYKFAISQSSTGTVMGAVIMEGFYVVFDRARKRIGFAVSACHVHDEFRTAAVEGPFVTLDMEDCGYNIPQTDESTLMTIAYVMAAICALFMLPLCLMVCQWRCLRCLRQQHDDFADDISLLKDYKDDDDK
With B1, the cleavage of substrate entry in data set [1] is listed as “Both enzymes exhibited activity in cleaving β-secretase substrates such as MBP-C125”.

B2: β-secretase purified from human brain (naturally occurring) (protein)
chain: ETDEEPEEPGRRGSFVEMVDNLRGKSGQGYYVEMTVGSPPQTLNILVDTGSSNFAVGAAPHPFLHRYYQRQLSSTYRDLRKGVYVPYTQGKWEGELGTDLVSIPHGPNVTVRANIAAITESDKFFINGSNWEGILGLAYAEIARPDDSLEPFFDSLVKQTHVPNLFSLQLCGAGFPLNQSEVLASVGGSMIIGGIDHSLYTGSLWYTPIRREWYYEVIIVRVEINGQDLKMDCKEYNYDKSIVDSGTTNLRLPKKVFEAAVKSIKAASSTEKFPDGFWLGEQLVCWQAGTTPWNIFPVISLYLMGEVTNQSFRITILPQQYLRPVEDVATSQDDCYKFAISQSSTGTVMGAVIMEGFYVVFDRARKRIGFAVSACHVHDEFRTAAVEGPFVTLDMEDCGYNIPQTDESTLMTIAYVMAAICALFMLPLCLMVCQWRCLRCLRQQHDDFADDISLLK
As for B2, in data set [2], the Specific Activity (MBP-C125sw assay), Affinity Eluate (nM/h/µg prot.) was found to be 258000 and the Specific Activity (MBP-C125sw assay), Anion Exchange Pool (nM/h/µg prot.) is 1.49e+06.

B3: full length β-secretase (clone 27; 1-501) (protein)
chain: TQHGIRLPLRSGLGGAPLGLRLPRETDEEPEEPGRRGSFVEMVDNLRGKSGQGYYVEMTVGSPPQTLNILVDTGSSNFAVGAAPHPFLHRYYQRQLSSTYRDLRKGVYVPYTQGKWEGELGTDLVSIPHGPNVTVRANIAAITESDKFFINGSNWEGILGLAYAEIARPDDSLEPFFDSLVKQTHVPNLFSLQLCGAGFPLNQSEVLASVGGSMIIGGIDHSLYTGSLWYTPIRREWYYEVIIVRVEINGQDLKMDCKEYNYDKSIVDSGTTNLRLPKKVFEAAVKSIKAASSTEKFPDGFWLGEQLVCWQAGTTPWNIFPVISLYLMGEVTNQSFRITILPQQYLRPVEDVATSQDDCYKFAISQSSTGTVMGAVIMEGFYVVFDRARKRIGFAVSACHVHDEFRTAAVEGPFVTLDMEDCGYNIPQTDESTLMTIAYVMAAICALFMLPLCLMVCQWRCLRCLRQQHDDFADDISLLK
As for B3, the “Aβ(x-40) production (ELISA of conditioned media)” value in data set [3] is recorded as “approximately 8-fold increase in Aβ(x-40) production”; in data set [4] it was “approximate 2-fold increase in Aβ(x-40)”.

B4: 452stop (recombinant β-secretase extending from position 1 to 452) (protein)
chain: TQHGIRLPLRSGLGGAPLGLRLPRETDEEPEEPGRRGSFVEMVDNLRGKSGQGYYVEMTVGSPPQTLNILVDTGSSNFAVGAAPHPFLHRYYQRQLSSTYRDLRKGVYVPYTQGKWEGELGTDLVSIPHGPNVTVRANIAAITESDKFFINGSNWEGILGLAYAEIARPDDSLEPFFDSLVKQTHVPNLFSLQLCGAGFPLNQSEVLASVGGSMIIGGIDHSLYTGSLWYTPIRREWYYEVIIVRVEINGQDLKMDCKEYNYDKSIVDSGTTNLRLPKKVFEAAVKSIKAASSTEKFPDGFWLGEQLVCWQAGTTPWNIFPVISLYLMGEVTNQSFRITILPQQYLRPVEDVATSQDDCYKFAISQSSTGTVMGAVIMEGFYVVFDRARKRIGFAVSACHVHDEFRTAAVEGPFVTLDMEDCGYNIPQTDEDYKDDDDK
B4: the cleavage of substrate entry was “exhibited activity in cleaving the MBP-C125sw substrate” in data set [2], “Both enzymes exhibited activity in cleaving β-secretase substrates such as MBP-C125” in data set [1] and “exhibited activity in cleaving the MBP-C125sw substrate as well as the P26-P4′ substrate” in data set [5].
